Assay: soluble on expression in E. coli; label from the status in PepcDB or PDB records

| Sequence | soluble on expression in E. coli |
| --- | --- |
| MAVKRPVRVLVNMDGVLADFESGLLQGFRRRFPEEPHVPLEQRRGFLANEQYGALRPDLAEKVASVYESPGFFLNLEPIPGALDALREMNDMKDTEVFICTTPLLKYDHCVGEKYRWVEQNLGPEFVERIILTRDKTVVMGDLLIDDKDNIQGLEETPSWEHILFTCCHNQHLALPPTRRRLLSWSDNWRGIIESKRASL | soluble |
| MAVLAVVLLLACLERAVAQTFGCSNTKINDQARKMFYDAHNDARRSMAKGLEPNKCGLLSGGKNVYELNWDCEMEAKAQEWADGCPSSFQTFDPTWGQNYATYMGSIADPLPYASMAVNGWWSEIRTVGLTDPDNKYTNSAMFRFANMANGKASAFGCAYALCAGKLSINCIYNKIGYMTNAIIYEKGDACTSDAECTTYSDSQCKNGLCYKAPQAPVVETFTMCPSVTDQSDQARQNFLDTHNKLRTSLAKGLEADGIAAGAFAPMAKQMPKLKYSCTVEANARTWAKGCLYQHSTSAQRPGLGENLYMISINNMPKIQTAEDSSKAWWSELKDFGVGSDNILTQAVFDRGVGHYTQMAWEGTTEIGCFVENCPTFTYSVCQYGPAGNYMNQLIYTKGSPCTADADCPGTQTCSVAEALCVIP | not soluble |
| MAVLCGVCGIKEFKYKCPRCLVQTCSLECSKKHKTRDNCSGQTHDPKEYISSEALKQADDDKHERNAYVQRDYNYLTQLKRMVHVQKMDARMKNKRVLGPVGGHNSNFKKRRYDIDEDDRDSTECQRIIRRGVNCLMLPKGMQRSSQNRSKWDKTMDLFVWSVEWILCPMQEKGEKKELFKHVSHRIKETDFLVQGMGKNVFQKCCEFYRLAGTSSCIEGEDGSETKEERTQILQKSGLKFYTKTFPYNTTHIMDSKKLVELAIHEKCIGELLKNTTVIEFPTIFVAMTEADLPEGYEVLHQEPRPLEHTSTLNKFIDNAREEEDAEEDSQPTEEPVQKETQDASDSDSDSDDDYNPGLSMDFLTA | not soluble |
| MAVTEVKLNAPLAVGVWAKMLNTETSKALPIAPLMGKSKNSIIQVLDMLEKSAGDAVTSGLRVQLMGDGVSEGQTLEGNEEALQFMNEKVHINELTHAVRIKYEGSIDQQRIPFSLRQEAKDGLVDWYADRLSLMFFIQAAGYTAPWMQFEGRTITLKPVHYGFNAPSEPSKLRVIRPAKKKTDEELTKEDVFTLDLIDQAVERAKLANPRLRPVRVDGKSAYVMYLHPIQVTQLRTNTKSGQWLDITKAAYDGSGAKNPIFNGSLGMYNGVILREAEHVPNGVNSKTQEPVPSVRRAVLLGAQSIIMAYGRIGNGATGSNEENSETRYKLVEELFDYQREFGLAAKTIIGMKKSRYTLPHSDQGGQDFGTIVIPSFAEAS | not soluble |
| MAVTNVAELNALVERVKKAQREYASFTQEQVDKIFRAAALAAADARIPLAKMAVAESGMGIVEDKVIKNHFASEYIYNAYKDEKTCGVLSEDDTFGTITIAEPIGIICGIVPTTNPTSTAIFKSLISLKTRNAIIFSPHPRAKEATNKAADIVLQAAIAAGAPKDLIGWIDQPSVELSNALMHHPDINLILATGGPGMVKAAYSSGKPAIGVGAGNTPVVIDETADIKRAVASVLMSKTFDNGVICASEQSVVVVDSVYDAVRERFASHGGYMLQGQELKAVQNVILKNGALNAAIVGQPAYKIAELAGFSVPETTKILIGEVTVVDESEPFAHEKLSPTLAMYRAKDFEEAVEKAEKLVAMGGIGHTSCLYTDQDNQPERVAYFGQMMKTARILINTPASQGGIGDLYNFKLAPSLTLGCGSWGGNSISENVGPKHLINKKTVAKRAENMLWHKLPKSIYFRRGSLPIALDEVITDGHKRALIVTDRFLFNNGYADQITSVLKAAGVETEVFFEVEADPTLSVVRKGAELANSFKPDVIIALGGGSPMDAAKIMWVMYEHPETHFEELALRFMDIRKRIYKFPKMGVKAKMIAVTTTSGTGSEVTPFAVVTDDATGQKYPLADYALTPDMAIVDANLVMDMPKSLCAFGGLDAVTHALEAYVSVLASEFSDGQALQALKLLKENLPASYHEGSKNPVARERVHSAATIAGIAFANAFLGVCHSMAHKLGSQFHIPHGLANALLICNVIRYNANDNPTKQTAFSQYDRPQARRRYAEIADHLGLSAPGDRTAAKIEKLLAWLESIKAELGIPKSIREAGVQEADFLAHVDKLSEDAFDDQCTGANPRYPLISELKQILLDTYYGRDFTEGEVAAKKDVVAAPKAEKKAKKSA | soluble |
| MAVYRNVQVNFWQDDFVLDLTPEERYFYVYLLTCSKTTQCGIFPFPKRLAEMETGYNRETVDKLVQRFVDYGKILYDADTRELFVLNWLRYNPVTNTNVEKCVLRELKSVKNKEFVHMFLQKCVEEELNVPMLLAHFGMPSDLAVDDVEPVCEETEAEEEVIEEETGSRVFSFYEQHFGSLSPFAVEELSAWMEDLSEELVLKALQIAFENNKRTVAYVKGILRGWHGKGFTKVCEVEADTAKFRKKESSVSTGETEEFLARCEEWEKNAPSEEELQRFLAERGWRP | not soluble |
| MAYKYDRDLEFLKQLESSDLLDLFEVLVFGKDGEKRHNEKLTSSIEYKRHGDDYAKYAERIAEELQYYGSNSFASFIKGEGVLYKEILCDVCDKLKVNYNKKTETTLIEQNMLSKILERSLEEMDDEEVKEMCDELSIKNTDNLNRQALSAATLTLFKMGGFKSYQLAVIVANAVAKTILGRGLSLAGNQVLTRTLSFLTGPVGWIITGVWTAIDIAGPAYRVTIPACIVVATLRLKTQQANGDKKSLQIESI | not soluble |
| MAYTEEQIENIKTRILTALEEVIDPELGIDIVNLGLIYEIRFDGDTGQTEIDMTLTTMGCPLADLLTDQIYDAMIEVPEVTDTEVKLVWYPAWTVEKMSRYARIALGIK | not soluble |
| MAYWRKWRTSMNLEALPKYYSPKSPKLSDAAPATGSGGLTITDVMAAQGMVQSKAPLGFALFLAKAGVQDPQFAIEGLLNYAMALDNPTLNKLSEEIRLQIIPYLVSFAFADYSRSAASKARCEPCAGTGFHNVLREVVKYSRSGESVIKEEWVKELCQHCHGKGEVSTACRGCKGKGIVLDEKRTRLHGAPVYKICGRCNGNRFSRLPTTLARCHVQKLVPDLTDYQWYKGYADVIDKLVTKCWQEEAYAEVQLRKVTR | not soluble |
| MCGRYALFSTPETLRETFGLTTAPVEPTYNAAPSQSLPVILDTEPTETVRARWGLVPSWSDGPQSAPDPINARAETLTETRHFQAAYEHRRCLVPVDGFYEWRDEDGATVPYFVSRTDGAPFLLAGLWETWTPEQTQTGLGEFTGDDGPSRDPETVRSFTVVTTQPNAFLADYHHRMAVVLTPAQGQRWLTDDDPTDLFTPGAFDLQAWRVSTAVNDPTVDRPALVEPALEHHHHHH | not soluble |
| MCKHCGAAVLFVKDDRWHVFDAKPSEEGEWRIRSRWAANVAAEKTTVTRLTESKLRRARLMGEPLFRPHFQTCPANPRAKILQEKRRHG | not soluble |
| MCMRRTLYRLMIELTNGRFTSYILRKFAQSRLSSIIIPSYVKVFQINQDEMEKGLKEYRTLHELFTRKLKEGKRSIDTDASSIVSPVDGVFADYGPIEDAKTFDIKGKRYSIVDMLGNEERAQRYAGGTYMVIYLSPSHYHRIHSPLSGSVTERFVLGRKSYPVNAAGMEYGKEPLSKNYRSVTEVNSDGEHMALVKVGAMFVNSIELLHERDTVQKGEEMAYFTFGSTVVLLFEKDMIEVVQELKSGQELRLGEKIATRLAHKMAGDPLEHHHHHH | soluble |
| MCPGVMGVGSTQSIVLVPGFPKPSTMNVQWKAEGAASQKDASTHKDWSSQVSSITCKPEKPETLPLGHFINGDFIVIIPAGGRALLSATGNAL | not soluble |
| MCQMPCQFSWPYTHYFTQTKNKEKILNKLIVFTGGPGAGKTSVIEQLKTQGFICAPETGRHVIQMQVANHGSALPWNDKQAFRDEMTKEEVSNYRSFNVRQGDVFFDRSIVDVYGYSKLEQLPISHELITHCQTLRYHSQVFIFPPWASIFSNDEERKQDFSEAVATYQQMVDAYHKFGYQLIEVPKMSVEDRVAFILGSVIELEHHHHHH | soluble |
| MCRIPVMIVSQPKQLKALSDPTRIKILELLREHPMSVSEIAERLGRDKSTVYRHIKALEDAGLVEVVEKIGNEVVYGRVAYVFLLVPNSNKEIEDLRRAYLSREVEKLIEVLEDSGIRIRDKEKFRSIVQKVFRDIENQSQHILSRLMNSSFDEIALIHILNFLTFLYSHKYVEESKQLFKLLDI | soluble |

— the DeepSol protein solubility set
